Here are results for two molecules from publication doi:10.1101/2024.06.13.598860, “The Mlh1-Pms1 endonuclease uses ATP to preserve DNA discontinuities as strand discrimination signals to facilitate mismatch repair”.

Data set [1] concerns the target T1, Mlh1-Pms1 (Saccharomyces cerevisiae (yeast), UniProt P38920;P14242 1-769;1-873). The experiment in a line: EMSA; 120 mM NaCl, no ATP; 20 mM HEPES-KOH (pH not given), 0.1 mM DTT, 2 mM MgCl2, 40 ug/mL BSA, 6% glycerol; plasmid DNA 3.8 nM, 10 min room temperature, agarose EMSA; oligonucleotides plus 120 mM NaCl, 10 min 4 C, 4% PAGE. As to conditions: protein: recombinant, copies: 1;1, label: 5'-32P on CMO169.

The target in data set [2] is T1, Mlh1-Pms1. The experiment in a line: EMSA; 120 mM NaCl, 0.5 mM ATP; 20 mM HEPES-KOH (pH not given), 0.1 mM DTT, 2 mM MgCl2, 40 ug/mL BSA, 6% glycerol; plasmid DNA 3.8 nM, 10 min room temperature, agarose EMSA; oligonucleotides plus 120 mM NaCl, 10 min 4 C, 4% PAGE. Particulars: protein: recombinant, copies: 1;1, label: 5'-32P on CMO169.
Setting [3] is: nicked duplex, blunt ends, 1:2 1:3, nick between strands 2 and 3.

T1 sequence (P38920 whole entry, chain 1 of 2): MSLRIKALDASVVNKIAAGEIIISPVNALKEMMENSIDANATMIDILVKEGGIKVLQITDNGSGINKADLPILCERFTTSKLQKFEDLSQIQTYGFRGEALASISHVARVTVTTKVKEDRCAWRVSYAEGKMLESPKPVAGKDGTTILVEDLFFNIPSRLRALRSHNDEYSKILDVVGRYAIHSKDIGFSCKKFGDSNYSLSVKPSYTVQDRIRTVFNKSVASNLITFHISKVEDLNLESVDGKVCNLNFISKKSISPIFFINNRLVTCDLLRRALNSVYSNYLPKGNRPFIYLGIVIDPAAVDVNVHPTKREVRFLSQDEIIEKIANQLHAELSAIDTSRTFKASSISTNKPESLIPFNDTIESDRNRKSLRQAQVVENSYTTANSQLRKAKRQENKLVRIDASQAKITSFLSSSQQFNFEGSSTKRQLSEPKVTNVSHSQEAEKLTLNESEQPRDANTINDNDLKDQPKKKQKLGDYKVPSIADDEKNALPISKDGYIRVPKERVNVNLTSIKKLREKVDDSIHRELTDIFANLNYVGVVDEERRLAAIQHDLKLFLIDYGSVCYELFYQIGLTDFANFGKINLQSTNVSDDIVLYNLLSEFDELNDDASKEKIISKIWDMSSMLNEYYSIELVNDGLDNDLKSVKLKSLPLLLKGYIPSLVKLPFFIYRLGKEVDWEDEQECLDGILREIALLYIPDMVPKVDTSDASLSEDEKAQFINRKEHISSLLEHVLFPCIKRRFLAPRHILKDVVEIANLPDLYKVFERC
T1 sequence (P14242 whole entry, chain 2 of 2): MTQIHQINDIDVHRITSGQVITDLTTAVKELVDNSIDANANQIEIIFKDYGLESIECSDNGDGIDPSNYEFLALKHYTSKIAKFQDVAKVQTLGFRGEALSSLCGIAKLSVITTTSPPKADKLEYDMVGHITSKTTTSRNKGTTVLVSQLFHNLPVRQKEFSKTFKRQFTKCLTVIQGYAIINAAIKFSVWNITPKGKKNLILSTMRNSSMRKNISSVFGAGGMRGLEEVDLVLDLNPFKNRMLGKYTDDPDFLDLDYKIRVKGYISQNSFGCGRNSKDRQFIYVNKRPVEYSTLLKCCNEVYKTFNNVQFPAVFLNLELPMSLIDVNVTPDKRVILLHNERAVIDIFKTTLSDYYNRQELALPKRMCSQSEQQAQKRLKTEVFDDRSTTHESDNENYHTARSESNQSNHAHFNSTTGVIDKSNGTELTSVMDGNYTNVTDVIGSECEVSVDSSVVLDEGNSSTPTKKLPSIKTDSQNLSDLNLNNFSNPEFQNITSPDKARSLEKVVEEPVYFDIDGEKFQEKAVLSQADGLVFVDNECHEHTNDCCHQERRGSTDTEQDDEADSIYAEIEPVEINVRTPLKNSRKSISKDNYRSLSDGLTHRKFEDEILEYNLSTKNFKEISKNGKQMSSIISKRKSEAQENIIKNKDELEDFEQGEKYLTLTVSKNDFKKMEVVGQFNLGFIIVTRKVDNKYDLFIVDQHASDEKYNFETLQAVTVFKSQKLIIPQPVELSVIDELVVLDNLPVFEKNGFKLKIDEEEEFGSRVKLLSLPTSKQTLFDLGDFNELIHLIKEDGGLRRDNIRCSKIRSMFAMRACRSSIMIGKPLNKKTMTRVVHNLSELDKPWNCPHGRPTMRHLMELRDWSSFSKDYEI

B1: intact 75-mer duplex (dsDNA)
DNA 1: TCGACCTAAGTCTAGCAGGTCACGTCACGCTACCGAATTCTGACTTGCTAGGACATCTTTGCTCACGTTGACCCA
DNA 2: TGGGTCAACGTGAGCAAAGATGTCCTAGCAAGTCAGAATTCGGTAGCGTGACGTGACCTGCTAGACTTAGGTCGA
Regarding B1, the Kd was found to be 96 ± 20 nM in data set [1] (blunt) and 79 ± 8 nM in data set [2] (blunt).

B2: discontinuous 75-mer duplex (single strand break) (dsDNA)
DNA 1: B1 DNA 1
DNA 2: TGGGTCAACGTGAGCAAAGATGTCCTAGCAAGTCAGA
DNA 3: ATTCGGTAGCGTGACGTGACCTGCTAGACTTAGGTCGA
Regarding B2, the values for the Kd in data set [1] (setting [3]) and in data set [2] (setting [3]) were 79 ± 3 nM and 77 ± 6 nM, respectively.
